Assay results taken from patent US20230408517A1 (BIO TECHNE, published 2023).
Like-named read-outs stand apart in the source and are kept apart here.

How the values were obtained:
[1] = molecular target: T1, SARS-CoV spike RBD (R306-F527), C-terminal 6-His (SARS-CoV, UniProt P59594 306-527); test: lateral flow NC50, RBD-AuNP vs immobilised ACE2
[2] = molecular target: T2, recombinant monomeric SARS-CoV-2 S1 protein, his-tagged (SARS-CoV-2, UniProt P0DTC2 16-681); test: flow cytometry, blocking of binding to hACE-2 cells
T2 construct: domain: S1

[3] = molecular target: T3, recombinant his-tagged homotrimeric SARS-CoV-2 spike protein (SARS-CoV-2, UniProt P0DTC2 16-1211); test: as above
[4] = molecular target: T4, recombinant monomeric SARS-CoV-1 S1 protein (SARS-CoV-1, UniProt P59594 14-667); test: as above
[5] = molecular target: T1, SARS-CoV spike RBD (R306-F527), …; test: as above
[6] = molecular target: T2, recombinant monomeric SARS-CoV-2 S1 …; test: as above; remark: listed apart in the source
[7] = molecular target: T3, recombinant his-tagged homotrimeric …; test: as above; remark: listed apart in the source
[8] = molecular target: T4, recombinant monomeric SARS-CoV-1 S1 …; test: as above; remark: listed apart in the source
[9] = molecular target: T1, SARS-CoV spike RBD (R306-F527), …; test: as above; remark: listed apart in the source
BSA [10] = molecular target: T5, BSA (bovine, UniProt P02769); test: dipstick, adsorbed protein spots, Ab 10 µg/mL, GAM-AuNP
T5 construct: also called bovine serum albumin
T5 sequence (P02769 25-607 limits assumed): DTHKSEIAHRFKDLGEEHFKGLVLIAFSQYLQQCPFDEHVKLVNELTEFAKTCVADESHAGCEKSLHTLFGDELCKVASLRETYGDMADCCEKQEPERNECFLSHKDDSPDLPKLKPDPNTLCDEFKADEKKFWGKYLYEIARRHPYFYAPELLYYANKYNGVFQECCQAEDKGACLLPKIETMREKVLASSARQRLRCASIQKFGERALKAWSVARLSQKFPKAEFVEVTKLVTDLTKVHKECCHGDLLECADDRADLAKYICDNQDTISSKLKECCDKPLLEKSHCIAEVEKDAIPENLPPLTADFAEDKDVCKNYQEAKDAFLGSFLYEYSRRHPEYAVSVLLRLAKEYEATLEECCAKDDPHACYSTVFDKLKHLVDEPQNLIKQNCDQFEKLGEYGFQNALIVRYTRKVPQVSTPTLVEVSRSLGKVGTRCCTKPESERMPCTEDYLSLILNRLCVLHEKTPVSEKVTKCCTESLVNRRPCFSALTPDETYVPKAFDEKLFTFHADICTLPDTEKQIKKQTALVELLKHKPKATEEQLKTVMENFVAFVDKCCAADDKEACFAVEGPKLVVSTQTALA

[11] = molecular target: T4, recombinant monomeric SARS-CoV-1 S1 …; test: antigen-down ELISA, coated SARS-CoV-1 S1 titrated, Ab 1 µg/mL
BSA [12] = molecular target: T5, BSA; test: dipstick, adsorbed protein spots, Ab 10 µg/mL, GAM-AuNP; remark: listed apart in the source
[13] = molecular target: T1, SARS-CoV spike RBD (R306-F527), …; test: antigen-down ELISA, coated SARS-CoV-1 S1 RBD titrated, Ab 1 µg/mL
[14] = molecular target: T4, recombinant monomeric SARS-CoV-1 S1 …; test: antigen-down ELISA, coated SARS-CoV-1 S1 titrated, Ab 1 µg/mL; remark: listed apart in the source
[15] = molecular target: T1, SARS-CoV spike RBD (R306-F527), …; test: antigen-down ELISA, coated SARS-CoV-1 S1 RBD titrated, Ab 1 µg/mL; remark: listed apart in the source
[16] = molecular target: T4, recombinant monomeric SARS-CoV-1 S1 …; test: antigen-down ELISA, coated SARS-CoV-1 S1 titrated, Ab 1 µg/mL; remark: listed apart in the source
BSA [17] = molecular target: T5, BSA; test: dipstick, adsorbed protein spots, Ab 10 µg/mL, GAM-AuNP; remark: listed apart in the source
[18] = molecular target: T1, SARS-CoV spike RBD (R306-F527), …; test: antigen-down ELISA, coated SARS-CoV-1 S1 RBD titrated, Ab 1 µg/mL; remark: listed apart in the source
[19] = molecular target: T4, recombinant monomeric SARS-CoV-1 S1 …; test: antigen-down ELISA, coated SARS-CoV-1 S1 titrated, Ab 1 µg/mL; remark: listed apart in the source
BSA [20] = molecular target: T5, BSA; test: dipstick, adsorbed protein spots, Ab 10 µg/mL, GAM-AuNP; remark: listed apart in the source
[21] = molecular target: T1, SARS-CoV spike RBD (R306-F527), …; test: antigen-down ELISA, coated SARS-CoV-1 S1 RBD titrated, Ab 1 µg/mL; remark: listed apart in the source
[22] = molecular target: T4, recombinant monomeric SARS-CoV-1 S1 …; test: antigen-down ELISA, coated SARS-CoV-1 S1 titrated, Ab 1 µg/mL; remark: listed apart in the source
[23] = molecular target: T1, SARS-CoV spike RBD (R306-F527), …; test: antigen-down ELISA, coated SARS-CoV-1 S1 RBD titrated, Ab 1 µg/mL; remark: listed apart in the source

B1: 1035740 (antibody, V domains shown)
VH: EVLLQQSGPELVKPGASVKIPCKASGYTFTDYNMDWVKQSHGKSLEWIGDINPNNGFTIYNQKFKGKATLTVDKSSSTAYMELRSLTSEDTAVYYCAREGYGNYFDYWGQGTTLTVSS
VL: DVLLTQSPAILSVSPGERVSFSCRASQSIGTSLHWYQQRTNGSPRLLIKYVSESISGIPSRFSGSGSGTDFTLSINSVESEDIADYYCQQSSSWPTTFGAGTKLELK
**Q.** What does the source list for B1?
**A.** IC50 [1]: 0.84 µg/mL; percent blocking [2]: 93.4%; percent blocking [3]: 96.5%; percent blocking [4]: 92.4%; percent blocking [5]: 98.8%; percent blocking [6]: 93.4%; percent blocking [7]: 96.5%; percent blocking [8]: 92.4%; percent blocking [9]: 98.8%; binding result (BSA [10]): no binding (tested: 10 µg/mL)

B2: 1035753 (antibody, V domains shown)
VH: EVQLQQSGAELVRPGALVKLSCKASGFNIKDYYMHWVKQRPEQGLEWIGWIDPENGNTIYDPKFLGKASITADTSSNTAYLQLSSLTSEDTAVYYCARWYYYAMDSWGQGTSVTVSS
VL: DIQMTQTTSSLSASLGDRVTISCSASQGISNYLNWYQQKPDGTVKLLIYYTSSLHSGVPSRFSGSGSGTDYSLTISNLEPEDIATYYCQQYSKLPFTFGGGTNLEMK
**Q.** Which results are given for B2?
**A.** percent blocking [2]: 94%; percent blocking [3]: 96.6%; percent blocking [4]: 0%; percent blocking [5]: 0%; percent blocking [6]: 94%; percent blocking [7]: 96.6%; percent blocking [8]: 0%; percent blocking [9]: 0%; binding result [11]: no binding (tested: 400 ng coated (axis)); binding result (BSA [12]): no binding (tested: 10 µg/mL); binding result [13]: no binding (tested: 400 ng coated (axis))

B3: 1035211 (antibody, V domains shown)
VH: QVQLQQSGAELARPGASVKMSCKASGYTFTNYTMHWVKQRPGQGLEWIGYINPSSGYTNYNQKFKDKATLTADKSSSTAYMQLSSLTSEDSAVYYCARRNPLYAMDYWGQGTSVTVSS
VL: DIKMTQSPSSMYASLGERVTITCKASQDINSYLNWFQQKPGKSPKTLIYRANRLVDGVPSRFSGSGSGQDYSLTISSLEFEDMGIYYCLQYDEFPYTFGGGTKLEIK
**Q.** How did the percent blocking [2] turn out when B3 was run?
**A.** 88.7%

**Q.** And the percent blocking [3]?
**A.** 78.6%

**Q.** And the percent blocking [4]?
**A.** 0%

**Q.** And the percent blocking [5]?
**A.** 0.1%

**Q.** What about the percent blocking [6] of the same binder?
**A.** 88.7%

**Q.** And the percent blocking [7]?
**A.** 78.6%

**Q.** And the percent blocking [8]?
**A.** 0%

**Q.** And the percent blocking [9]?
**A.** 0.1%

**Q.** Does B3 bind [14]?
**A.** no binding (tested: 400 ng coated (axis))

**Q.** Does B3 bind [15]?
**A.** no binding (tested: 400 ng coated (axis))

B4: 1035709 (antibody, V domains shown)
VH: EVQLQQSGPELVKPGASVKISCKTSGYTFTEYTMHWVKQSHGKSLEWIGGINPNIVDTGYNQKFKGKATLTVDKSSSTAYMELRSLTSEDSAVYYCARDGYPLYYAMDYWGQGTSVTVSS
VL: DIQMTQSPSSLSASLGERVSLTCRASQEISGYLSWLQQKPDGTIKRLIYAASTLDSGVPKRFSGSRSGSDYSLTISSLESEDFADYYCLQYASYPWTFGGGTKLEIK
**Q.** How did the percent blocking [2] turn out when B4 was run?
**A.** 93.6%

**Q.** What about the percent blocking [3] of the same binder?
**A.** 96.5%

**Q.** What about the percent blocking [4] of the same binder?
**A.** 0%

**Q.** What about the percent blocking [5] of the same binder?
**A.** 0%

**Q.** What about the percent blocking [6] of the same binder?
**A.** 93.6%

**Q.** What about the percent blocking [7] of the same binder?
**A.** 96.5%

**Q.** What about the percent blocking [8] of the same binder?
**A.** 0%

**Q.** And the percent blocking [9]?
**A.** 0%

**Q.** Does B4 bind [16]?
**A.** no binding (tested: 400 ng coated (axis))

**Q.** Does B4 bind (BSA [17])?
**A.** no binding (tested: 10 µg/mL)

**Q.** Does B4 bind [18]?
**A.** no binding (tested: 400 ng coated (axis))

B5: 1035762 (antibody, V domains shown)
VH: EVQLQQSGPELVKPGASVKISCKTSGYTFTEYTMHWVKQSHGKSLEWIGGINPNNGDTGYNQKFKGKATLTVDKSSSTAYMELRSLTFEDSAVYYCARDGYPLYYAMDYWGQGTSVTVSS
VL: DIQMTQSPSSLSASLGERVSLTCRASQEISGYLCWLQQKPDGTIKRLIYAASTLDSAVPKRFSGSRSGSDYSLTISSLESEDFADFYCLQYASYPWTFGGGTKLEIK
**Q.** Which results are given for B5?
**A.** percent blocking [2]: 93.2%; percent blocking [3]: 93%; percent blocking [4]: 0%; percent blocking [5]: 0%; percent blocking [6]: 93.2%; percent blocking [7]: 93%; percent blocking [8]: 0%; percent blocking [9]: 0%; binding result [19]: no binding (tested: 400 ng coated (axis)); binding result (BSA [20]): no binding (tested: 10 µg/mL); binding result [21]: no binding (tested: 400 ng coated (axis))

B6: 1035755 (antibody, V domains shown)
VH: EVQLQQSGAELVRPGALVKLSCKASGFNIKDYYMHWVKQRPEQGLEWIGWIDPENGNSIYDPKFQGKASITADTSSNTAYLQLSSLTSEDTAVYYCATPSATSYFDYWGQGTTLTVSS
VL: QIVLTQSPAIMSASPGEKVTISCSASSSVSYMYWYQQKPGSSPKPWIYRTSNLASGVPARFSGSGSGTSYSLTISSMEAEDAATYYCQQYHSYPYMYTFGGGTKLEIK
**Q.** B6 was tested. Which percent blocking [2] did it give?
**A.** 93.3%

**Q.** What about the percent blocking [3] of the same binder?
**A.** 84.6%

**Q.** What about the percent blocking [4] of the same binder?
**A.** 1.3%

**Q.** What about the percent blocking [5] of the same binder?
**A.** 0%

**Q.** What about the percent blocking [6] of the same binder?
**A.** 93.3%

**Q.** What about the percent blocking [7] of the same binder?
**A.** 84.6%

**Q.** And the percent blocking [8]?
**A.** 1.3%

**Q.** And the percent blocking [9]?
**A.** 0%

**Q.** Does B6 bind [22]?
**A.** no binding (tested: 400 ng coated (axis))

**Q.** Does B6 bind [23]?
**A.** no binding (tested: 400 ng coated (axis))
